{"source": "patent US7264801", "binders": {"B1": {"name": "EG-VEGF-his (human EG-VEGF with C-terminal … tag, baculovirus-produced) (ligand)", "chain": "AVITGACERDVQCGAGTCCAISLWLRGLRMCTPLGREGEECHPGSHKVPFFRKRKHHTCPCLPNLLCSRFPDGRYRCSMDLKNINFGHHHHHHHH", "modifications": "125I-iodinated when used as tracer in the cell binding assays (Iodobead or lactoperoxidase method); the unlabeled form was the competitor and the ELISA antigen"}}, "key": {"[1]": {"target": "EG-VEGF receptor (high affinity binding sites) on bovine adrenal cortical capillary endothelial cells (ACE) (bovine)", "experiment": "displacement of 125I-EG-VEGF by unlabeled tagged EG-VEGF on ACE cells"}, "[2]": {"target": "EG-VEGF receptor (high affinity binding sites) on bovine adrenal cortical capillary endothelial cells (ACE) (bovine)", "experiment": "125I-EG-VEGF competitive binding on ACE cells, Scatchard analysis"}, "[3]": {"target": "EG-VEGF binding component on human umbilical vein endothelial cells (HUVEC) (human)", "experiment": "displacement of 125I-EG-VEGF by unlabeled tagged EG-VEGF on HUVEC and other non-responsive cells"}}}
{"binder": "B1", "values": [{"measurement": "ED50", "setting": "[1]", "result": 10, "unit": "nM"}, {"measurement": "Kd", "setting": "[2]", "result": "0.9 to 1", "unit": "nM"}, {"measurement": "competitor concentration that displaces the binding", "setting": "[3]", "result": "> 270", "unit": "nM"}]}
